Source: article PMC6441041

Columns and labels:
[1] = molecular target: SH1 membrane-associated protein VP12 (haloarchaeal virus SH1); experiment: cryo-EM structure; purified SH1 virions with and without spikes, data merged; icosahedral and block-based/localised reconstruction of the capsid, 3.8 Å; 20 mM Tris-HCl pH 7.2, 1 M NaCl, 10 mM MnCl2
[2] = molecular target: SH1 penton protein VP9 (haloarchaeal virus SH1); experiment: cryo-EM structure; asymmetric (C1) localised reconstruction of the whole 5-fold vertex of spike-containing virions, overall 7.2 Å

Substance	stoichiometry N [1]	stoichiometry N [2]
SH1 membrane-associated protein VP12 (natural protein)	5	–
SH1 penton protein VP9 (natural protein)	–	5
